Assay results as given in US20220226382A1, “Nutritional Composition” (MORINAGA MILK INDUSTRY CO., LTD., priority 2019, published 2022).

Test system: simian rotavirus SA11 strain
Assay: Plaque assay: antiviral action against simian rotavirus in MA104 cells (infection-suppressing ratio)
Assay type: cell-based
Settings: LF alone, n=3
Method: The simian rotavirus SA11 strain (Nihon Bioresearch Inc.) was inoculated to the MA104 cells (Sigma-Aldrich) of African green monkey kidney maintained in a minimum essential medium (Sigma-Aldrich, henceforth referred to simply as “medium”). The simian rotavirus SA11 strain, for example, can be obtained from American Type Culture Collection (ATCC) as ATCC VR-1565. To the medium, lactoferrin (LF) and/or the human milk oligosaccharide(s) shown below were added beforehand alone or in combination at the following concentrations, respectively (n=3).
LF (produced by Morinaga Milk Industry Co., Ltd.): 0, 0.1 or 1.0 mg/mL
2′-Fucosyllactose (2′-FL, Funakoshi Co., Ltd.): 0, 0.1, 0.5, or 2.5 mg/mL
3-Fucosyllactose (3-FL, Funakoshi Co., Ltd.): 0, 0.1, or 0.5 mg/mL
3′-Sialyllactose (3′-SL, Funakoshi Co., Ltd.): 0, 0.1, or 0.5 mg/mL
6′-Sialyllactose (6′-SL, Funakoshi Co., Ltd.): 0, 0.1, or 0.5 mg/mL […]
Degree of infection was evaluated based on the number of “plaques” formed when the cells were infected with the virus. Specifically, the antiviral effects of lactoferrin and human milk oligosaccharides were evaluated based on “plaque-suppressing ratio (%)”, i.e., the ratio of “plaque counts observed with lactoferrin and/or human milk oligosaccharide(s) supplementation” to “plaque counts observed without these supplementation”. […]

B1: lactoferrin (protein, UniProt P24627 20-708, looked up)
Lactotransferrin: APRKNVRWCTISQPEWFKCRRWQWRMKKLGAPSITCVRRAFALECIRAIAEKKADAVTLDGGMVFEAGRDPYKLRPVAAEIYGTKESPQTHYYAVAVVKKGSNFQLDQLQGRKSCHTGLGRSAGWIIPMGILRPYLSWTESLEPLQGAVAKFFSASCVPCIDRQAYPNLCQLCKGEGENQCACSSREPYFGYSGAFKCLQDGAGDVAFVKETTVFENLPEKADRDQYELLCLNNSRAPVDAFKECHLAQVPSHAVVARSVDGKEDLIWKLLSKAQEKFGKNKSRSFQLFGSPPGQRDLLFKDSALGFLRIPSKVDSALYLGSRYLTTLKNLRETAEEVKARYTRVVWCAVGPEEQKKCQQWSQQSGQNVTCATASTTDDCIVLVLKGEADALNLDGGYIYTAGKCGLVPVLAENRKSSKHSSLDCVLRPTEGYLAVAVVKKANEGLTWNSLKDKKSCHTAVDRTAGWNIPMGLIVNQTGSCAFDEFFSQSCAPGADPKSRLCALCAGDDQGLDKCVPNSKEKYYGYTGAFRCLAEDVGDVAFVKNDTVWENTNGESTADWAKNLNREDFRLLCLDGTRKPVTEAQSCHLAVAPNHAVVSRSDRAAHVKQVLLHQQALFGKNGKNCPDKFCLFKSETKNLLFNDNTECLAKLGGRPTYEEYLGTEYVTAIANLKKCSTSPLLEACAFLTR
notes: produced by Morinaga Milk Industry Co., Ltd
infection-suppressing ratio (0.1 mg/mL): 8.7% | infection-suppressing ratio (1.0 mg/mL): 39%
